Key:
[1] = target: T1, hNinj1 extracellular domain peptide with added C-terminal lysine, biotinylated (human); assay: clone ELISA screen
T1 sequence (peptide, biotin on the added C-terminal lysine (K57)): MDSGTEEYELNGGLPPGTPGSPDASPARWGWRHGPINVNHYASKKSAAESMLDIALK

[2] = target: T2, N-terminally biotinylated hNinj1 (2-56) peptide (human, UniProt Q92982 2-56, N-terminal biotin); assay: scFv clone ELISA screen
T2 construct: range 2-56; also called hNinj1 펩타이드
T2 sequence (peptide, looked up): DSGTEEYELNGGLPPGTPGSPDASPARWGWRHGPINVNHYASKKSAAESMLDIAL

[3] = target: T3, NINJ1 peptide (analyte of the sandwich ELISA) (UniProt Q92982 1-56, limits assumed); assay: sandwich ELISA, NINJ1 titrated
T3 construct: also called Ninj1 펩타이드; NINJ1 펩타이드
T3 sequence (peptide, looked up): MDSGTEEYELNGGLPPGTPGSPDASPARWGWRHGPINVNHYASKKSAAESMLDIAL

B1: C12, Fab clone of the rabbit immune library (Fab, V domains shown)
VH: QEQLKETGGGLVQPGGSLKLSCKASGIDFNTYTVSWVRQAPGKGLELIGYVDPVFDDTYYATWVNGRFTISSHNAQNTVYLQLNSLTAADTATYFCARLGAYDSSSGYPNFSLWGPGTLVTISS
VL: ELTQPPSLSASLDTTARLTCTLSTDYSVGEYPLVWLQQVPGRPPRYLLGYHTDDIKHQGPGVPSRFSGSKDHSTNTGVLTISGLQPEDEADYYCAVGVVFGGGTQLTVTG
B1 showed an ELISA ratio hNinj1/control [1] of 5.09.

B2: G2, Fab clone of the rabbit immune library (Example 1.3.3) (Fab, V domains shown)
VH: QEQLKETGGGLVQPGGSLKLSCKASGIDFNTYTVSWVRQAPGKGLELIGYVDPVFDDTYYATWVNGRFTISSHNAQNTVYLQLNSLTAADTATYFCARLGAYDSSSGYPNFSLWGPGTLVTISS
VL: ELTQPPSLSASLDTTARLTCTLSTDYSVGEYPLVWLQQVPGRPPRYLLGYHTDDIKHQGPGVPSRFSGSKDHSTNTGVLTISGLQPEDEADYYCAVGVVFGGGTQLTVTG
With B2 the ELISA ratio hNinj1/control [1] was 10.6.

B3: B3, scFv clone of the VH3VL1 synthetic human antibody library (scFv)
chain: EVQLLESGGGLVQPGGSLRLSCAASGFTFSDYDMSWVRQAPGKGLEWVSGISSDNGSTYYADSVKGRFTISRDNSKNTLYLQMNSLRAEDTAVYYCARAAITCNNEWCYYYDAMDVWGQGTLVTVSSGGGGSGGGGSGGGGSQSVLTQPPSASGTPGQRVTISCTGPSSNIGNNDVSWYQQLPGTAPKLLIYANSNRPSGVSDRFSGSKSGTSASLAISGLRSEDEADYYCGAWDDSLNGYVFGGGTKLTVLGQAGQHHHHHHGAYPYDVPDYAS
B3 was tested, and the “ELISA ratio hNinj1/control” value [2] was 5.12.

B4: C11, scFv clone of the VH3VL1 synthetic human antibody library (scFv)
chain: EVQLLESGGGLVQPGGSLRLSCAASGFTFSSYGISWVRQAPGKGLEWVSAISGSGGSTYYADSVKGRFTISRDNSKNTLYLQMNSLRAEDTAVYYCARTPIDADAFDYWGQGTLVTVSSGGGGSGGGGSGGGGSQSVLTQPPSASGTPGQRVTISCTGNIGNIASNYVQWYQQLPGTAPKLLIYDTYNKHRGVPDRFSGSKSGTSASLAISGLRSEDEADYYCGAWDDSLSGPVFGGGTKLTVLGQAGQHHHHHHGAYPYDVPDYAS
For B4, the “ELISA ratio hNinj1/control” value [2] was 6.18.

B5: E6, scFv clone of the VH3VL1 synthetic human antibody library (scFv)
chain: EVQLLESGGGLVQPGGSLRLSCAASGFTFSSYAIHWVRQAPGKGLEWVSAISGSGGSTYYADSVKGRFTISRNNSKNTLYLQVNSLRAEDTAVYYCARNPTYGGFDIWGQGTLVTVSSGGGGSGGGGSGGGGSQSVLTQPPSASGTPGQRVTISCSGSSSNIGSNYVYWYQQLPGTAPKLLIYRNNQRPSGVPDRFSGSKSGTSASLAISGLRSEDEADYYCGAWDDSLSSPVFGGGTKLTVLGQAGQHHHHHHGAYPYDVPDYAS
B5 was tested, and the “ELISA ratio hNinj1/control” value [2] was 5.62.

B6: C12 anti-Ninj1 IgG antibody (antibody, V domains shown)
VH: QEQLKETGGGLVQPGGSLKLSCKASGIDFNTYTVSWVRQAPGKGLELIGYVDPVFDDTYYATWVNGRFTISSHNAQNTVYLQLNSLTAADTATYFCARLGAYDSSSGYPNFSLWGPGTLVTISS
VL: ELTQPPSLSASLDTTARLTCTLSTDYSVGEYPLVWLQQVPGRPPRYLLGYHTDDIKHQGPGVPSRFSGSKDHSTNTGVLTISGLQPEDEADYYCAVGVVFGGGTQLTVTG
notes: Tested as IgG made in ExpiCHO; also called C12 IgG; 항 C12 Ninj1 항체
B6 was tested, and the EC50 [3] was roughly 0.03 µg/mL.
